Target: SARS-CoV-2 RBD (R319-F541) with a C-terminal His tag (SARS-CoV-2) (UniProt P0DTC2)
Assay: SEC + other: non-reducing SDS-PAGE

Substance “SARS-CoV-2 RBD (R319-F541) with a C-terminal His tag (from UniProt P0DTC2 319-541) (domain or fragment)” has a percent dimer of 30% and a stoichiometry N of 2.

Reference: paper PMC9708728
